In patent publication US20230034906A1 (TRINOMAB BIOTECH, published 2023):
Numbering of substitutions follows the chain as printed.

Assays:
Assay in all cases: indirect ELISA, antibody titrated on gB glycoprotein mutant
[1] = biological target: T1, gB_Towne protein with N417 mutated into glutamine (human cytomegalovirus, strain Towne, UniProt F5HB53 25-700)
T1 chain: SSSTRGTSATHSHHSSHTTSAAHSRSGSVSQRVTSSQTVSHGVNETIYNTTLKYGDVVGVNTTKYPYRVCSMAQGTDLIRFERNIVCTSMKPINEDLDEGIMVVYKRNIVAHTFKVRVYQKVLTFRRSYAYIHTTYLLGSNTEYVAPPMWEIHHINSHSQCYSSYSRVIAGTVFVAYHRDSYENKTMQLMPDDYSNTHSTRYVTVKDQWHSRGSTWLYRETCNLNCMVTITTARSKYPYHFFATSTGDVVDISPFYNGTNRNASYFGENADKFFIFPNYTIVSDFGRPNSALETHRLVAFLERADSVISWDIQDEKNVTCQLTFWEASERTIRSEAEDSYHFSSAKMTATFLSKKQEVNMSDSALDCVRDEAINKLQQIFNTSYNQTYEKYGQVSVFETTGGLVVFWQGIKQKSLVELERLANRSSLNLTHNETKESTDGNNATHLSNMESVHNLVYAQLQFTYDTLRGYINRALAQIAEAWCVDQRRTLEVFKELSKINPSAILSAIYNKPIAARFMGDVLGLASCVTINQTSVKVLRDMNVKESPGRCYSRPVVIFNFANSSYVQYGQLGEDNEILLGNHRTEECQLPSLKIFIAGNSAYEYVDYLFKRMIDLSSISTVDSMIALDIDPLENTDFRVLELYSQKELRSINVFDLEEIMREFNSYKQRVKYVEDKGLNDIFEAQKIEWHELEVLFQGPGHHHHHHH

[2] = biological target: T2, gB_Towne protein with N383 mutated into glutamine (human cytomegalovirus, strain Towne, UniProt F5HB53 25-700)
T2 chain: T1 chain with N359Q, Q393N

[3] = biological target: T3, gB_Towne protein with N341 mutated into glutamine (human cytomegalovirus, strain Towne, UniProt F5HB53 25-700)
T3 chain: T1 chain with N317Q, Q393N

[4] = biological target: T4, gB_Towne protein with N302 mutated into glutamine (human cytomegalovirus, strain Towne, UniProt F5HB53 25-700)
T4 chain: T1 chain with N278Q, Q393N

Measured: binding result

B1: TRN1019 (antibody, V domains shown)
VH: QVQLVQSGAEVKKPGESLKISCKGSGYTFTNYWIGWVRQMPGAGLEWMAIIFPRDSYSAYSPSFQGRVTISVDKSISTAYLHWSSLEASDTAVYYCAIYNDLRSGNSWGQGTPLIVSS
VL: DIQMTQSPSSLSASVGDRVTITCRASQSITKYLNWYQQKPGRAPKLLIHTTSTLQSGVPSRFSGSGSGTDFTLTISSLQLEDFGTYYCQQSFSTLWTFGQGTKLDIKR
notes: Fully human antibody; kappa light chain
binds: all assays above
